Target: RlucII-Rab7A (UniProt P51149 1-207)
Assay: FRET or BRET

RlucII-Rab7A, sequence (P51149 whole entry): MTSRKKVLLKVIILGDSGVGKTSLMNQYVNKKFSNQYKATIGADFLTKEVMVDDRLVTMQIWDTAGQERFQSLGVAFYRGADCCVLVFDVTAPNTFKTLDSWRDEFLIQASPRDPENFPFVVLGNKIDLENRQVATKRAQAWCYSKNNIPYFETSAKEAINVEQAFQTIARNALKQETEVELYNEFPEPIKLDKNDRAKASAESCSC

fold change of BRET50, CLN3-KO against wild-type HeLa cells: 3.5 fold
B1: PLEKHM1-GFP10 (natural protein, UniProt Q9Y4G2 1-1056, looked up)
chain: MLSVVENGLDPQAAIPVIKKKLVGSVKALQKQYVSLDTVVTSEDGDANTMCSALEAVFIHGLHAKHIRAEAGGKRKKSAHQKPLPQPVFWPLLKAVTHKHIISELEHLTFVNTDVGRCRAWLRLALNDGLMECYLKLLLQEQARLHEYYQPTALLRDAEEGEFLLSFLQGLTSLSFELSYKSAILNEWTLTPLALSGLCPLSELDPLSTSGAELQRKESLDSISHSSGSEDIEVHHSGHKIRRNQKLTASSLSLDTASSSQLSCSLNSDSCLLQENGSKSPDHCEEPMSCDSDLGTANAEDSDRSLQEVLLEFSKAQVNSVPTNGLSQETEIPTPQASLSLHGLNTSTYLHCEAPAEPLPAQAASGTQDGVHVQEPRPQAPSPLDLQQPVESTSGQQPSSTVSETAREVGQGNGLQKAQAHDGAGLKLVVSSPTSPKNKSWISEDDFYRPSREQPLESASDHPIASYRGTPGSRPGLHRHFSQEPRKNCSLGALDQACVPSPGRRQAQAAPSQGHKSFRVVHRRQMGLSNPFRGLMKLGTVERRGAMGIWKELFCELSPLEFRLYLSNEEHTCVENCSLLRCESVGPAHSDGRFELVFSGKKLALRASSQDEAEDWLDRVREALQKVRPQQEDEWVNVQYPDQPEEPPEAPQGCLSPSDLLSEPAALQGTQFDWSSAQVPEPDAIKESLLYLYMDRTWMPYIFSLSLEALKCFRIRNNEKMLSDSHGVETIRDILPDTSLGGPSFFKIITAKAVLKLQAGNAEEAALWRDLVRKVLASYLETAEEAVTLGGSLDENCQEVLKFATRENGFLLQYLVAIPMEKGLDSQGCFCAGCSRQIGFSFVRPKLCAFSGLYYCDICHQDDASVIPARIIHNWDLTKRPICRQALKFLTQIRAQPLINLQMVNASLYEHVERMHLIGRRREQLKLLGDYLGLCRSGALKELSKRLNHRNYLLESPHRFSVADLQQIADGVYEGFLKALIEFASQHVYHCDLCTQRGFICQICQHHDIIFPFEFDTTVRCAECKTVFHQSCQAVVKKGCPRCARRRKYQEQNIFA
